{"source": "paper PMC4726114", "about": "“DSF Guided Refolding As A Novel Method Of Protein Production” (Scientific Reports, 2016)", "proteins": {"B1": {"name": "human irisin (FNDC5 residues 32-143) (natural protein, UniProt Q8NAU1 80-191, looked up)", "chain": "DSPSAPVNVTVRHLKANSAVVSWDVLEDEVVIGFAISQQKKDVRMLRFIQEVNTTTRSCALWDLEEDTEYIVHVQAISIQGQSPASEPVLFKTPREAEKMASKNKDEVTMKE", "notes": "irisin, human FNDC5 residues 32-143"}}, "molecular_target": "the molecule itself", "test": "SEC; analytical size-exclusion chromatography of refolded irisin; apparent molecular weight 28 kDa", "data": [{"protein": "B1", "values": [{"measurement": "stoichiometry N", "value": 2}]}]}
